In article PMC7017226:

What was measured:
[1] = molecular target: Stromal interacting molecule 2 (STIM2) (rat (endogenous in primary cortical neurons)); assay: proximity ligation; Duolink in situ PLA on fixed 17-day-old rat cortical neurons; rabbit anti-STIM1 or anti-STIM2 with mouse anti-NR2A or anti-NR2B; cells treated 10 min with 2 mM CaCl2 (control) or 2 uM TG in 0.5 mM EGTA; PLA signals per cell counted in ImageJ
[2] = molecular target: Stromal interacting molecule 1 (STIM1) (rat (endogenous in primary cortical neurons)) (UniProt P84903); assay: as above
Sequence of Stromal interacting molecule 1 (STIM1) (rat (endogenous in primary cortical neurons)) (P84903 23-685): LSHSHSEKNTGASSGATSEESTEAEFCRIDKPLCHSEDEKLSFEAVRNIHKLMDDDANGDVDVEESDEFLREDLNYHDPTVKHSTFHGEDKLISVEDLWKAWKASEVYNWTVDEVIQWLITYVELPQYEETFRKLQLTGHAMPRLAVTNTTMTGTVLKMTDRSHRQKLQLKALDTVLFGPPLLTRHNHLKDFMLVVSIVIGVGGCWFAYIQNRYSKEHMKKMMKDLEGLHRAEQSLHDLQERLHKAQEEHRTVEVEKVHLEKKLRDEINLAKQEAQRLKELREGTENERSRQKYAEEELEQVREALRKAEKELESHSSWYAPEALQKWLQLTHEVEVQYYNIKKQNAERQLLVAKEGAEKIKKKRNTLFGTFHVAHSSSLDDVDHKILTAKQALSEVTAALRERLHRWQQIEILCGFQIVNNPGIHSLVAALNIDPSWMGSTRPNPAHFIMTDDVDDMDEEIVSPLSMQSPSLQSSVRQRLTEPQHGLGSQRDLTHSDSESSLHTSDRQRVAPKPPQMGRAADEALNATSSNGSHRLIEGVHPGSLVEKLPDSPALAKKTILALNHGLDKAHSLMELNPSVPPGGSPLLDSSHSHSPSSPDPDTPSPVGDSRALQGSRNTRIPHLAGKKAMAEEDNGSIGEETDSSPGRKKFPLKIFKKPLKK

Sequence of NMDA receptor subunit NR2A (Q00959 23-1464): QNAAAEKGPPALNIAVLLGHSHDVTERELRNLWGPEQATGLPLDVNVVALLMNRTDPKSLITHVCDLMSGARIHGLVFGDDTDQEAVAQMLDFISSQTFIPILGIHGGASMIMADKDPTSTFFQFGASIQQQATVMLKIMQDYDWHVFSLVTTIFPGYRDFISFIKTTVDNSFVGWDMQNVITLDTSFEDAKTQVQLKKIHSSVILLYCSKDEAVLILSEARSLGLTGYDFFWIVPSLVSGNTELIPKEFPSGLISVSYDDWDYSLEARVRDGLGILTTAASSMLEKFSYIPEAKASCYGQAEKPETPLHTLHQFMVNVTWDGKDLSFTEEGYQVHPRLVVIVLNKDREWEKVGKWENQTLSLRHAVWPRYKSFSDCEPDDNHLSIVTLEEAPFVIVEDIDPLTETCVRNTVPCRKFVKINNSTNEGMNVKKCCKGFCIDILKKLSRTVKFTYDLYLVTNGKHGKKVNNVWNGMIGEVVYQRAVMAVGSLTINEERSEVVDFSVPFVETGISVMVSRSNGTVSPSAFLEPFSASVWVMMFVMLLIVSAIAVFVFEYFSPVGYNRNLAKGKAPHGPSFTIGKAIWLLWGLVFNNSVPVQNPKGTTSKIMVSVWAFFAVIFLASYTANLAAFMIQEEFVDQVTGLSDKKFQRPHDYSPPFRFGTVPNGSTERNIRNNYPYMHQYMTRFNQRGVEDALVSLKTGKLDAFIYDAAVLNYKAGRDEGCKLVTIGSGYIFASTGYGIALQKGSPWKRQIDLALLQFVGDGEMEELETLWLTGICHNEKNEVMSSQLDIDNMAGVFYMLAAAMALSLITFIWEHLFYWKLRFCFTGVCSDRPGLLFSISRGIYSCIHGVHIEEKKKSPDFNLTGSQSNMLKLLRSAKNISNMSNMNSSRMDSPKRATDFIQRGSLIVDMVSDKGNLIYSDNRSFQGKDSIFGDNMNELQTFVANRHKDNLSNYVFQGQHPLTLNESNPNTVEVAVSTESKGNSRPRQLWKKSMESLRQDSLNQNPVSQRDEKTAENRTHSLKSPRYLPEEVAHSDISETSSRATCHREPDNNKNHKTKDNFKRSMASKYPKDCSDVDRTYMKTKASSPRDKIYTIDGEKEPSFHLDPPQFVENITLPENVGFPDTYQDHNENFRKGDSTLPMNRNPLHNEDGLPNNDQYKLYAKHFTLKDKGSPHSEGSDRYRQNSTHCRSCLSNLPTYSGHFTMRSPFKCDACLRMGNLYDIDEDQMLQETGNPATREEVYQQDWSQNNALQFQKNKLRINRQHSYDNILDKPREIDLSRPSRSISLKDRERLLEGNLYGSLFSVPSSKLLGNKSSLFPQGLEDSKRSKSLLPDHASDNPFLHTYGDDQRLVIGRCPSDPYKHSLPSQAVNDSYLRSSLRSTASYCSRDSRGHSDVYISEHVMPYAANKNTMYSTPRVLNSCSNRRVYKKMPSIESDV
Sequence of NMDA receptor subunit NR2B, Q00960 27-1482 (receptor; other documents disagree on this pair) (Q00960 27-1482): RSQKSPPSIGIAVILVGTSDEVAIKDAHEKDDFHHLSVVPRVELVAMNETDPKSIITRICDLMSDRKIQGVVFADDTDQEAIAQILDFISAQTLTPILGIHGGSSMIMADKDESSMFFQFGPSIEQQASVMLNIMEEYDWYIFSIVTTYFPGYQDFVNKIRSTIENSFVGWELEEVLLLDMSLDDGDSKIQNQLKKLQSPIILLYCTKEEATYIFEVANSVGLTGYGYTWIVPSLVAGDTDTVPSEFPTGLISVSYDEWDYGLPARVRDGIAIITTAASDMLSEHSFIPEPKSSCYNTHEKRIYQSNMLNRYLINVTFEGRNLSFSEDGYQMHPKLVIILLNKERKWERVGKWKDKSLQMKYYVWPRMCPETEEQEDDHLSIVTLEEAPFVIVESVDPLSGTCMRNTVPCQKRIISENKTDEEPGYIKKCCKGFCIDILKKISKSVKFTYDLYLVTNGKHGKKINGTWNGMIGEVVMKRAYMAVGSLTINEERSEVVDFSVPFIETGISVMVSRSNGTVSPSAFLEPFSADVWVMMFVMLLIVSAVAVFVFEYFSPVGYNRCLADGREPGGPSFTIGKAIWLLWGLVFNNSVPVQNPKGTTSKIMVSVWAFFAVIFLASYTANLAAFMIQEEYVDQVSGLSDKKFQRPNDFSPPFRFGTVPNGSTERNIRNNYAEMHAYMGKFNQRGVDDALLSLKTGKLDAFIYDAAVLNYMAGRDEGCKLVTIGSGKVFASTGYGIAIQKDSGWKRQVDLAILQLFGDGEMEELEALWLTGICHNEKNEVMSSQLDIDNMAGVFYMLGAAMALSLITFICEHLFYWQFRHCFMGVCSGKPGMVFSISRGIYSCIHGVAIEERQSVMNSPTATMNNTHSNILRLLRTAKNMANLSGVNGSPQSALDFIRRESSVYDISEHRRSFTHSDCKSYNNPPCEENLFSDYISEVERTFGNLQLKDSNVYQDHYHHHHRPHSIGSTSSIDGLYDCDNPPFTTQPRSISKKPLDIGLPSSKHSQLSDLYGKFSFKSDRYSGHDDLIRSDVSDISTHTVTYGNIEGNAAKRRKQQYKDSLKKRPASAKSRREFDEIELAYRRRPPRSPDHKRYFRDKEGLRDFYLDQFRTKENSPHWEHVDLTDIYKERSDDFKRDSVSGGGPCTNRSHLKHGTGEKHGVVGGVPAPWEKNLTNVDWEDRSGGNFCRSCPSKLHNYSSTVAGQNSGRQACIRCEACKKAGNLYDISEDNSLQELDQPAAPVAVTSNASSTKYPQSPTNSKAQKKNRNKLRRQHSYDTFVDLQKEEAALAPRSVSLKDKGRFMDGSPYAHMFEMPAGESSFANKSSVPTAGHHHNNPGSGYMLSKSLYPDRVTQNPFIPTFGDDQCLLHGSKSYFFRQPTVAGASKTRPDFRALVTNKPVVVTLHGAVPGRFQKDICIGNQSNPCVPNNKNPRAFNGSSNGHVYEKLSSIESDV

| Substance | PLA complexes per cell (complexes per cell) [1] | PLA complexes per cell (complexes per cell) [2] |
| --- | --- | --- |
| NMDA receptor subunit NR2A (from UniProt Q00959 23-1464) | 3.78 |  |
| NMDA receptor subunit NR2B, Q00960 27-1482 (receptor; other documents disagree on this pair) |  | 57.2 |
